Assay results reported in US20040014178A1 (published 2004).

B1: phagemid clone SlvW2 (vWbl fragment displayed on phagemid particles) (other)
chain: GNEVQETEEGTHDAPGIIGDKWQYTGQTTTEDGITTHIYQRIQSEIPNEAPQETPVALEVTRYVDSEGN
B2: vWb (von Willebrand factor binding protein) from S. aureus, wild type secreted protein (other)
chain: VVSGEKNPYVSESLKLTNNKNKSRTVEEYKKSLDDLIWSFPNLDNERFDNPEYKEAMKKYQQRFMAEDEALKKFFSEEKKIKNGNTDNLDYLGLSHERYESVFNTLKKQSEEFLKEIEDIKKDNPELKDFNEEEQLKCDLELNKLENQILMLGKTFYQNYRDDVESLYSKLDLIMGYKDEERANKKAVNKRMLENKKEDLETIIDEFFSDIDKTRPNNIPVLEDEKQEEKNHKNMAQLKSDTEAAKSDESKRSKRSKRSLNTQNHKPASQEVSEQQKAEYDKRAEERKARFLDNQKIKKTPVVSLEYDFEHKQRIDNENDKKLVVSAPTKKPTSPTTYTETTTQVPMPTVERQTQQQIIYNAPKQLAGLNGESHDFTTTHQSPTTSNHTHNNVVEFEETSALPGRKSGSLVGISQIDSSHLTEREKRVIKREHVREAQKLVDNYKDTHSYKDRINAQQKVNTLSEGHQKRFNKQINKVYNGK
notes: Purified from the culture supernatant of S. aureus Newman with the Eap gene deleted; also called wild type vWb; purified secreted vWb protein

What was measured:
[1] = target: T1, human recombinant von Willebrand factor (human, UniProt P04275 764-2813); assay: phagemid clone isolated by panning the S. lugdunensis library against vWF
T1 construct: also called rvWf; rvWF

[2] = target: T1, human recombinant von Willebrand factor; assay: blot of vWb on nitrocellulose probed with 125I-labelled vWF

Binder	binding result [1]	binding result [2]
B1	binds	–
B2	–	binds
